We go through 125 sequences from the supplement of paper PMC9112550, “Optimization of the antimicrobial peptide Bac7 by deep mutational scanning” (BMC Biology, 2022).
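Also: peptides expressed intracellularly from a pBAD plasmid library in pooled LB shake-flask culture, induced with 0.3% L-arabinose, DNA abundance read by NGS, three biological replicates, DESeq2 with apeglm shrinkage.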

The data set relates to Escherichia coli TOP10. Put plainly: shrunken log2 fold change of peptide-encoding DNA abundance (4.5 h post-induction vs induction); higher = less antimicrobial activity (less host growth inhibition). To be noted: time post-induction: 4.5 h; library: site-saturation at positions 5, 18, 19, 20.
For the sequence RRIRSRPPRLPRPRPRPAMIPRP, the “shrunken log2 fold change” value worked out at 0.365.

Regarding RRIRLRPPRLPRPRPRPPVEPRP, the “shrunken log2 fold change” value was found to be 0.638.

With RRIRERPPRLPRPRPRPGEEPRP, the “shrunken log2 fold change” value is 0.175.

For the sequence RRIRSRPPRLPRPRPRPTKLPRP, the “shrunken log2 fold change” value amounted to 0.0448.

As to RRIRSRPPRLPRPRPRPFSAPRP, the “shrunken log2 fold change” value was -0.259.

RRIRRRPPRLPRPRPRPNWMPRP: the “shrunken log2 fold change” value is 0.0739.

With RRIRIRPPRLPRPRPRPIKKPRP, the “shrunken log2 fold change” value is -0.0505.

For RRIRCRPPRLPRPRPRPITHPRP, the “shrunken log2 fold change” value is -0.158.

RRIRPRPPRLPRPRPRPTSVPRP: the “shrunken log2 fold change” value was found to be 0.181.

For RRIRCRPPRLPRPRPRPNVSPRP, the “shrunken log2 fold change” value is 0.0773.

RRIRYRPPRLPRPRPRPTVTPRP: the “shrunken log2 fold change” value is -0.283.

With RRIRYRPPRLPRPRPRPGSIPRP, the “shrunken log2 fold change” value is -0.606.

RRIRYRPPRLPRPRPRPQSWPRP: the “shrunken log2 fold change” value is 0.0202.

In the case of RRIRDRPPRLPRPRPRPWFKPRP, the “shrunken log2 fold change” value is -0.203.

Regarding RRIRSRPPRLPRPRPRPLGGPRP, the “shrunken log2 fold change” value was 0.455.

Consider RRIRNRPPRLPRPRPRPATYPRP, for which the “shrunken log2 fold change” value is -1.05.

Turning to RRIRDRPPRLPRPRPRPLQAPRP, the “shrunken log2 fold change” value is 0.365.

On to RRIRNRPPRLPRPRPRPPRLPRP, for which the “shrunken log2 fold change” value was determined as 0.514.

On to RRIRERPPRLPRPRPRPKSVPRP, for which the “shrunken log2 fold change” value was -0.00947.

Regarding RRIRHRPPRLPRPRPRPGQQPRP, the “shrunken log2 fold change” value was -0.028.

As for RRIRIRPPRLPRPRPRPTEQPRP, the “shrunken log2 fold change” value was -0.348.

In the case of RRIRTRPPRLPRPRPRPHKMPRP, the “shrunken log2 fold change” value is -0.0381.

RRIRMRPPRLPRPRPRPPGPPRP: the “shrunken log2 fold change” value amounted to 1.41.

As for RRIRYRPPRLPRPRPRPSLNPRP, the “shrunken log2 fold change” value was -0.646.

On to RRIRTRPPRLPRPRPRPVNDPRP, for which the “shrunken log2 fold change” value came to 0.0249.

For RRIRARPPRLPRPRPRPGKMPRP, the “shrunken log2 fold change” value was -0.0572.

As for RRIRFRPPRLPRPRPRPNHCPRP, the “shrunken log2 fold change” value was -0.0425.

In the case of RRIRRRPPRLPRPRPRPFLHPRP, the “shrunken log2 fold change” value turned out to be 0.0267.

In the case of RRIRFRPPRLPRPRPRPPQEPRP, the “shrunken log2 fold change” value is 0.258.

RRIRTRPPRLPRPRPRPMKAPRP: the “shrunken log2 fold change” value came out at 0.0679.

As to RRIRLRPPRLPRPRPRPPCYPRP, the “shrunken log2 fold change” value was 0.00883.

For RRIRIRPPRLPRPRPRPKEAPRP, the “shrunken log2 fold change” value was found to be 0.0518.

For the sequence RRIRGRPPRLPRPRPRPWDNPRP, the “shrunken log2 fold change” value was -0.0364.

RRIRPRPPRLPRPRPRPFWDPRP: the “shrunken log2 fold change” value is -0.465.

With RRIRTRPPRLPRPRPRPPQYPRP, the “shrunken log2 fold change” value is -0.108.

RRIRIRPPRLPRPRPRPVMDPRP: the “shrunken log2 fold change” value was -0.184.

Consider RRIRRRPPRLPRPRPRPDWQPRP, for which the “shrunken log2 fold change” value is 0.399.

RRIRPRPPRLPRPRPRPAHYPRP: the “shrunken log2 fold change” value is 0.02.

As for RRIRFRPPRLPRPRPRPSCAPRP, the “shrunken log2 fold change” value was -0.22.

On to RRIRCRPPRLPRPRPRPFEDPRP, for which the “shrunken log2 fold change” value is -0.019.

Regarding RRIRQRPPRLPRPRPRPRQMPRP, the “shrunken log2 fold change” value worked out at 0.297.

On to RRIRDRPPRLPRPRPRPWWFPRP, for which the “shrunken log2 fold change” value was -0.00226.

Take RRIRTRPPRLPRPRPRPHALPRP: the “shrunken log2 fold change” value is 0.0575.

RRIRHRPPRLPRPRPRPNYYPRP: the “shrunken log2 fold change” value was -0.639.

For the sequence RRIRLRPPRLPRPRPRPPWTPRP, the “shrunken log2 fold change” value worked out at 0.411.

For the sequence RRIRQRPPRLPRPRPRPNRPPRP, the “shrunken log2 fold change” value was -0.056.

RRIRIRPPRLPRPRPRPCNDPRP: the “shrunken log2 fold change” value was -0.0787.

As for RRIRVRPPRLPRPRPRPRLNPRP, the “shrunken log2 fold change” value is -0.00875.

In the case of RRIRDRPPRLPRPRPRPKAYPRP, the “shrunken log2 fold change” value turned out to be 0.053.

For RRIRERPPRLPRPRPRPIEKPRP, the “shrunken log2 fold change” value was found to be 0.00242.

For RRIRCRPPRLPRPRPRPPIKPRP, the “shrunken log2 fold change” value was -0.0789.

Take RRIRRRPPRLPRPRPRPRKAPRP: the “shrunken log2 fold change” value turned out to be 0.885.

In the case of RRIRMRPPRLPRPRPRPPVHPRP, the “shrunken log2 fold change” value stood at 0.595.

Turning to RRIRRRPPRLPRPRPRPTENPRP, the “shrunken log2 fold change” value turned out to be 0.464.

Regarding RRIRERPPRLPRPRPRPFGAPRP, the “shrunken log2 fold change” value stood at 0.143.

With RRIRHRPPRLPRPRPRPKKTPRP, the “shrunken log2 fold change” value was 0.0065.

As to RRIRMRPPRLPRPRPRPCHNPRP, the “shrunken log2 fold change” value is -0.355.

As for RRIRSRPPRLPRPRPRPRSCPRP, the “shrunken log2 fold change” value was found to be 0.108.

For the sequence RRIRGRPPRLPRPRPRPMTMPRP, the “shrunken log2 fold change” value came to 0.146.

Take RRIRFRPPRLPRPRPRPAHAPRP: the “shrunken log2 fold change” value came out at 0.0606.

Regarding RRIRSRPPRLPRPRPRPFDMPRP, the “shrunken log2 fold change” value was 0.394.

Consider RRIRTRPPRLPRPRPRPESAPRP, for which the “shrunken log2 fold change” value was 0.0458.

As for RRIRNRPPRLPRPRPRPYVIPRP, the “shrunken log2 fold change” value is -0.177.

RRIRCRPPRLPRPRPRPPWCPRP: the “shrunken log2 fold change” value is -0.123.

On to RRIRKRPPRLPRPRPRPRYIPRP, for which the “shrunken log2 fold change” value is -0.268.

Turning to RRIRPRPPRLPRPRPRPCPTPRP, the “shrunken log2 fold change” value was determined as 0.0557.

Turning to RRIRWRPPRLPRPRPRPYEYPRP, the “shrunken log2 fold change” value was -0.254.

As to RRIRPRPPRLPRPRPRPYCEPRP, the “shrunken log2 fold change” value is -0.337.

As to RRIRLRPPRLPRPRPRPFYGPRP, the “shrunken log2 fold change” value is -0.157.

With RRIRMRPPRLPRPRPRPQVPPRP, the “shrunken log2 fold change” value was -0.0842.

Take RRIRQRPPRLPRPRPRPGSAPRP: the “shrunken log2 fold change” value is 0.104.

Consider RRIRYRPPRLPRPRPRPWCGPRP, for which the “shrunken log2 fold change” value was -0.974.

Consider RRIRERPPRLPRPRPRPSDAPRP, for which the “shrunken log2 fold change” value was -0.0474.

On to RRIRSRPPRLPRPRPRPTTAPRP, for which the “shrunken log2 fold change” value was found to be 0.155.

With RRIRGRPPRLPRPRPRPCTTPRP, the “shrunken log2 fold change” value amounted to 0.141.

As to RRIRIRPPRLPRPRPRPTEAPRP, the “shrunken log2 fold change” value was -0.153.

In the case of RRIRVRPPRLPRPRPRPHTTPRP, the “shrunken log2 fold change” value was -0.26.

RRIRQRPPRLPRPRPRPLSVPRP: the “shrunken log2 fold change” value is -0.539.

For the sequence RRIRVRPPRLPRPRPRPRVWPRP, the “shrunken log2 fold change” value was 0.736.

Consider RRIRDRPPRLPRPRPRPAAKPRP, for which the “shrunken log2 fold change” value is 0.359.

Consider RRIRRRPPRLPRPRPRPCSIPRP, for which the “shrunken log2 fold change” value was -0.0224.

As for RRIRGRPPRLPRPRPRPMPWPRP, the “shrunken log2 fold change” value worked out at 0.25.

As for RRIRKRPPRLPRPRPRPYWSPRP, the “shrunken log2 fold change” value was -0.153.

In the case of RRIRNRPPRLPRPRPRPCLFPRP, the “shrunken log2 fold change” value was -0.608.

With RRIRMRPPRLPRPRPRPHMAPRP, the “shrunken log2 fold change” value turned out to be 0.0168.

Consider RRIRLRPPRLPRPRPRPTPIPRP, for which the “shrunken log2 fold change” value is 0.3.

Take RRIRYRPPRLPRPRPRPSHNPRP: the “shrunken log2 fold change” value was -0.628.

Take RRIRERPPRLPRPRPRPRCCPRP: the “shrunken log2 fold change” value was -0.234.

Turning to RRIRSRPPRLPRPRPRPKMDPRP, the “shrunken log2 fold change” value stood at 0.232.

For RRIRNRPPRLPRPRPRPEDYPRP, the “shrunken log2 fold change” value is -0.133.

RRIRQRPPRLPRPRPRPLRLPRP: the “shrunken log2 fold change” value is 0.655.

As to RRIRFRPPRLPRPRPRPYEIPRP, the “shrunken log2 fold change” value was -0.241.

On to RRIRNRPPRLPRPRPRPCPLPRP, for which the “shrunken log2 fold change” value was found to be 0.011.

RRIRVRPPRLPRPRPRPCMVPRP: the “shrunken log2 fold change” value was -0.614.

Consider RRIRCRPPRLPRPRPRPYMGPRP, for which the “shrunken log2 fold change” value was -0.017.

Regarding RRIRGRPPRLPRPRPRPLEYPRP, the “shrunken log2 fold change” value turned out to be 0.123.

With RRIRLRPPRLPRPRPRPDAMPRP, the “shrunken log2 fold change” value was 0.224.

Consider RRIRVRPPRLPRPRPRPPFWPRP, for which the “shrunken log2 fold change” value turned out to be 0.46.

On to RRIRLRPPRLPRPRPRPTTCPRP, for which the “shrunken log2 fold change” value worked out at 0.0385.

As to RRIRMRPPRLPRPRPRPDNSPRP, the “shrunken log2 fold change” value was -0.071.

Regarding RRIRGRPPRLPRPRPRPQIVPRP, the “shrunken log2 fold change” value came to 0.12.

With RRIRCRPPRLPRPRPRPAKMPRP, the “shrunken log2 fold change” value worked out at 0.104.

On to RRIRIRPPRLPRPRPRPWTHPRP, for which the “shrunken log2 fold change” value was -0.0959.

Consider RRIRPRPPRLPRPRPRPSNVPRP, for which the “shrunken log2 fold change” value was -0.463.

As to RRIRQRPPRLPRPRPRPFCMPRP, the “shrunken log2 fold change” value was -0.0373.

With RRIRWRPPRLPRPRPRPVYMPRP, the “shrunken log2 fold change” value is -0.476.

With RRIRWRPPRLPRPRPRPQRRPRP, the “shrunken log2 fold change” value amounted to 0.358.

As to RRIRHRPPRLPRPRPRPGSYPRP, the “shrunken log2 fold change” value was -0.287.

Take RRIRMRPPRLPRPRPRPVFCPRP: the “shrunken log2 fold change” value came to 0.388.

For the sequence RRIRPRPPRLPRPRPRPGPWPRP, the “shrunken log2 fold change” value is 0.0326.

RRIRLRPPRLPRPRPRPGRGPRP: the “shrunken log2 fold change” value turned out to be 0.696.

On to RRIRSRPPRLPRPRPRPKWRPRP, for which the “shrunken log2 fold change” value is 0.29.

With RRIRTRPPRLPRPRPRPQWDPRP, the “shrunken log2 fold change” value was -0.0974.

As to RRIRWRPPRLPRPRPRPRWMPRP, the “shrunken log2 fold change” value is 0.1.

In the case of RRIRWRPPRLPRPRPRPTRFPRP, the “shrunken log2 fold change” value is 0.286.

For RRIRRRPPRLPRPRPRPKFTPRP, the “shrunken log2 fold change” value was -0.176.

Consider RRIRKRPPRLPRPRPRPPFQPRP, for which the “shrunken log2 fold change” value worked out at 0.119.

On to RRIRHRPPRLPRPRPRPVERPRP, for which the “shrunken log2 fold change” value was -0.00973.

As for RRIRQRPPRLPRPRPRPGVWPRP, the “shrunken log2 fold change” value came out at 0.611.

For RRIRTRPPRLPRPRPRPRENPRP, the “shrunken log2 fold change” value was determined as 0.277.

In the case of RRIRMRPPRLPRPRPRPIDYPRP, the “shrunken log2 fold change” value was -0.0477.

With RRIRIRPPRLPRPRPRPGNSPRP, the “shrunken log2 fold change” value was -1.05.

Consider RRIRQRPPRLPRPRPRPDLNPRP, for which the “shrunken log2 fold change” value was 0.0947.

With RRIRHRPPRLPRPRPRPRQFPRP, the “shrunken log2 fold change” value is -0.0158.

As for RRIRPRPPRLPRPRPRPQVSPRP, the “shrunken log2 fold change” value was -0.00288.
